The text below walks through data of patent publication US7501267B2, “Gene sequence of L-rhamnose isomerase having new catalytic function and use thereof” (Rare Sugar Production Technical Research Laboratories, LLC, priority 2003, dated 2009).

Where two headings read alike, the source gives them in different places.

For series [1], the system named is L-rhamnose isomerase produced by Pseudomonas stutzerii LL172. The settings on record: Non-Patent Document 3, cited from earlier work; for Effect of a chelating agent on activity: coexisting during the measurement of activity.
Series [2] shares this test system. Briefly: Effect of a chelating agent or metal ion on L-rhamnose isomerase activity. Format: biochemical. The settings on record: for Effect of a chelating agent on activity: coexisting during the measurement of activity.
For series [3] the following is noted: cited from earlier work.
Substrate in series [4]: OC[C@H]1OC(O)[C@@H](O)[C@H](O)[C@@H]1O
Briefly: Km and Vmax of purified L-rhamnose isomerase for a variety of substrates. The class given is biochemical, Pseudomonas stutzeri. The settings on record: other: purified enzyme without immobilizing; pH 7.0. As to the method:
(§1) An enzyme was obtained with the same conditions as those of Example 5. The measurement of Km and Vmax was carried out using the enzyme without immobilizing.
(§2) The cells were washed twice with 0.05 M sodium phosphate buffer (pH 7.0). The washed cells were ground with alumina powder and subjected to centrifugation to remove insoluble substances together with alumina powder, whereby a crude enzyme solution was obtained. The obtained crude enzyme solution was subjected to affinity chromatography using an Ni-NTA column to purify the enzyme, whereby a pure enzyme was obtained. After the enzyme was dialyzed against ultrapure water, lyophilization was carried out, whereby pure powder enzyme was obtained. By allowing 20 mg of the enzyme to be adsorbed on 1 g of Chitopearl resin, immobilized enzyme was prepared.

Substrate in series [5]: OC[C@H]1OC(O)[C@H](O)[C@H](O)[C@@H]1O
The series is described as above. Format: biochemical, Pseudomonas stutzeri. The settings on record: other: purified enzyme without immobilizing; pH 7.0. As to the method: as §1, §2

Substrate in series [6]: OC[C@@H]1OC(O)[C@H](O)[C@H](O)[C@H]1O
Described as above. Format: biochemical, Pseudomonas stutzeri. The settings on record: other: purified enzyme without immobilizing; pH 7.0. As to the method: as §1, §2

Substrate in series [7]: C[C@@H]1OC(O)[C@H](O)[C@H](O)[C@H]1O
Described as above. The class given is biochemical, Pseudomonas stutzeri. The settings on record: other: purified enzyme without immobilizing; pH 7.0. The method, then:
as §1, §2

Substrate in series [8]: OC1OC[C@H](O)[C@@H](O)[C@H]1O
Briefly: cells, lysate or membranes named. The settings on record: other: purified enzyme without immobilizing; pH 7.0.

Substrate in series [9]: OC1OC[C@H](O)[C@H](O)[C@H]1O
Briefly: cells, lysate or membranes named. The settings on record: other: purified enzyme without immobilizing; pH 7.0.

Substrate in series [10]: OC1OC[C@@H](O)[C@@H](O)[C@H]1O
Briefly: cells, lysate or membranes named. The settings on record: other: purified enzyme without immobilizing; pH 7.0.

For the molecule `[Co+2]` [cobalt ion], the “Activity inhibited by metal ion” value in [1] (1 mM) and in series [2] (1 mM) was “About 30%” throughout.

For the molecule `O=C(O)CN(CCN(CC(=O)O)CC(=O)O)CC(=O)O` [EDTA], the “Effect of a chelating agent on activity” value in series [1] and in series [2] was “hardly inhibited” in each case.

Consider `O=C(O)CN(CCOCCOCCN(CC(=O)O)CC(=O)O)CC(=O)O` [EGTA], for which the “Effect of a chelating agent on activity” value in [1] and in [2] was “hardly inhibited” in each case.

B1: L-rhamnose isomerase derived from P. stutzeri (Stutzerimonas stutzeri) (protein)
chain: MAEFRIAQDVVARENDRRASALKEDYEALGANLARRGVDIEAVTAKVEKFFVAVPSWGVGTGGTRFARFPGTGEPRGIFDKLDDCAVIQQLTRATPNVSLHIPWDKADPKELKARGDALGLGFDAMNSNTFSDAPGQAHSYKYGSLSHTDAATRAQAVEHNLECIEIGKAIGSKALTVWIGDGSNFPGQSNFTRAFERYLSAMAEIYKGLPDDWKLFSEHKMYEPAFYSTVVQDWGTNYLIAQTLGPKAQCLVDLGHHAPNTNIEMIVARLIQFGKLGGFHFNDSKYGDDDLDAGAIEPYRLFLVFNELVDAEARGVKGFHPAHMIDQSHNVTDPIESLINSANEIRRAYAQALLVDRAALSGYQEDNDALMATETLKRAYRTDVEPILAEARRRTGGAVDPVATYRASGYRARVAAERPASVAGGGGII
Consider B1, for which the “Optimal pH” value stood at 9.0 and the Optimal temperature worked out at 60 °C. The “Temperature stability, activity remaining” value in [3] (10 min) is given as not below 90%. In [3] (Non-Patent Document 3), the “Optimal pH” value is reported as 9.0 and the Optimal temperature is 60 °C. In series [4], the Km is 71 mM and the Vmax was determined as 0.01 µmol/min/mg. For the same molecule, in series [5], the Km was found to be 42 mM and the Vmax amounted to 6.76 µmol/min/mg. In series [6], the Michaelis constant (Km) came out at 55.5 mM and the Vmax was determined as 139 µmol/min/mg. Also, in series [7], the Km is 11.9 mM and the maximal velocity (Vmax) was 238 µmol/min/mg. Further, the “Temperature stability, activity remaining” value (10 min) was not below 90%. Moreover, in series [8], the Km turned out to be 61.7 mM and the Vmax came to 123 µmol/min/mg. Further, in series [9], the Km is 2.35 mM and the Vmax was 0.061 µmol/min/mg. In addition, in [10], the Km turned out to be 38.5 mM and the Vmax was found to be 21.4 µmol/min/mg.
